Source: article PMC8960412

What was measured:
[1] = molecular target: anti-huPD-1-huGITR-L bispecific (Anti-PD-1-GITR-L-hIgG1-LALA) (human) (UniProt Q9UNG2); experiment: SPR; bispecific captured as in the human SPR, recombinant human or cynomolgus GITR-His as analyte; cross-species experiment (Supplementary Table 11)
[2] = molecular target: anti-PD-1-hIgG1-LALA (human); experiment: SPR; as for human FcRn/β2m: samples immobilised, cyno FcRn/β2m as analyte; pH 6.0
[3] = molecular target: anti-huPD-1-huGITR-L bispecific (Anti-PD-1-GITR-L-hIgG1-LALA) (human) (UniProt Q9UNG2); experiment: as above
[4] = molecular target: isotype-hIgG1-LALA (human); experiment: as above
[5] = molecular target: isotype/huGITR-L-hIgG1-LALA (human); experiment: as above
[6] = molecular target: anti-PD-1-hIgG1-LALA (human); experiment: SPR; Biacore T200; samples directly immobilised by amine coupling, human FcRn/β2m as analyte; running buffer pH 6.0
[7] = molecular target: anti-huPD-1-huGITR-L bispecific (Anti-PD-1-GITR-L-hIgG1-LALA) (human) (UniProt Q9UNG2); experiment: as above
[8] = molecular target: isotype-hIgG1-LALA (human); experiment: as above
[9] = molecular target: isotype/huGITR-L-hIgG1-LALA (human); experiment: as above
[10] = molecular target: human GITR on transfected HEK293 cells (human) (UniProt Q9Y5U5); experiment: flow cytometry on cells; human GITR-HEK293 cells incubated with a serial dilution of antibodies; detected with PE goat anti-human IgG F(ab')2
[11] = molecular target: anti-huPD-1-huGITR-L bispecific (Anti-PD-1-GITR-L-hIgG1-LALA) (human) (UniProt Q9UNG2); experiment: SPR; Biacore T200; antibody constructs captured by goat anti-human H+L on a CM5 chip, recombinant human GITR-His as analyte; global 1:1 fit (Supplementary Table 3)
[12] = molecular target: isotype/huGITR-L-hIgG1-LALA (human); experiment: as above

Sequence of anti-PD-1-hIgG1-LALA (human) (heavy, as listed by the source, chain 1 of 2): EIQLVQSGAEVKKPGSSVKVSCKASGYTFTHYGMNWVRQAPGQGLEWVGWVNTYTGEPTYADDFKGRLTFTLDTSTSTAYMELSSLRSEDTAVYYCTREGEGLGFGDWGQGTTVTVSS
Sequence of anti-PD-1-hIgG1-LALA (human) (light, as listed by the source, chain 2 of 2): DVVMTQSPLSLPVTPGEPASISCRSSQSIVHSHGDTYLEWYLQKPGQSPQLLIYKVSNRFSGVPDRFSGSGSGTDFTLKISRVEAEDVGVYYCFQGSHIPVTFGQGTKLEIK

Cyno GITR-His (recombinant extracellular domain of cynomolgus GITR) (domain or fragment)
Kd [1]: 0.79 nM
koff [1]: 0.00087 s⁻¹
kon [1]: 1.1e+06 M⁻¹ s⁻¹

cyno FcRn/β2m heterodimer (from UniProt Q8SPV9 24-365; Q8SPW0 21-119) (complex)
Kd [2]: 1900 nM
Kd [3]: 2000 nM
Kd [4]: 1700 nM
Kd [5]: 2200 nM

human FcRn/β2m heterodimer (from UniProt P55899 24-297; P61769 21-119) (complex)
Kd [6]: 2200 nM
Kd [7]: 2300 nM
Kd [8]: 2000 nM
Kd [9]: 2400 nM

isotype/huGITR-L-hIgG1-LALA
EC50 [10]: 0.9 nM

Hu GITR-His (recombinant extracellular domain of human GITR) (from UniProt Q9Y5U5 26-162) (domain or fragment)
Kd [1]: 1.8 nM
koff [1]: 0.001 s⁻¹
kon [1]: 560000 M⁻¹ s⁻¹
Kd [11]: 16 nM
koff [11]: 0.0017 s⁻¹
kon [11]: 110000 M⁻¹ s⁻¹
Kd [12]: 15 nM
koff [12]: 0.0016 s⁻¹
kon [12]: 110000 M⁻¹ s⁻¹
